Measurements reported in patent publication US20210024639A1 (AGOMAB THERAPEUTICS, published 2021).

B1: chimeric llama-human IgG1 mAb 71A3 (antibody, V domains shown)
VH: EVQLVESGGGLVQPGGSLRLSCAASGFSFKDYDITWVRQAPGKGLEWVSTITSRSGSTSYVDSVKGRFTISGDNAKNTLYLQMNSLKPEDTAVYYCAKVYATTWDVGPLGYGMDYWGKGTLVTVSS
VL: SYELTQPSALSVTLGQTAKITCQGGSLGSSYAHWYQQKPGQAPVLVIYDDDSRPSGIPERFSGSSSGGTATLTISGAQAEDEGDYYCQSADSSGNAAVFGGGTHLTVL
B2: chimeric llama-human IgG1 mAb 71G2 (antibody, V domains shown)
VH: EVQLQESGGGLVQPGGSLRLSCAASGFTFSIYDMSWVRQAPGKGLEWVSTINSDGSSTSYVDSVKGRFTISRDNAKNTLYLQMNSLKPEDTAVYYCAKVYGSTWDVGPMGYGMDYWGKGTLVTVSS
VL: SSALTQPSALSVSLGQTARITCQGGSLGSSYAHWYQQKPGQAPVLVIYGDDSRPSGIPERFSGSSSGGTATLTISGAQAEDEDDYYCQSTDSSGNTVFGGGTRLTVL
B3: chimeric llama-human IgG1 mAb 76H10 (antibody, V domains shown)
VH: QLQLVESGGGLVQPGGSLRVSCTASGFTFNTYYMTWVRQAPGKGLEWVSDINSGGGTYYADSVKGRFTISRDNAKNTLYLQMNSLKPEDTALYYCVRVRIWPVGYDYWGQGTQVTVSS
VL: QAVVTQEPSLSVSPGGTVTLTCGLSSGSVTTSNYPGWFQQTPGQAPRTLIYNTNNRHSGVPSRFSGSISGNKAALTITGAQPEDEADYYCSLYTGSYTTVFGGGTHLTVL

Columns and labels:
[1] = target: human MET ECD mutant E (mutations 2, 3, 4) (human) (UniProt P08581); experiment: ELISA, MET ECD mutant in solid phase, mAb 0-50 nM
[2] = target: human MET ECD mutant H (mutations 2, 4) (human) (UniProt P08581); experiment: ELISA, MET ECD mutant in solid phase, mAb 0-50 nM
[3] = target: human MET ECD mutant D (mutations 1, 2) (human) (UniProt P08581); experiment: ELISA, MET ECD mutant in solid phase, mAb 0-50 nM
[4] = target: human MET ECD mutant A (mutations 1, 2, 3) (human) (UniProt P08581); experiment: ELISA, MET ECD mutant in solid phase, mAb 0-50 nM
[5] = target: T1, native mouse MET on living mouse cells (mouse, UniProt P16056 25-1379); experiment: flow cytometry, MLP29 cells
T1 construct: whole, on cells; also called Mouse cells (MLP29)
Procedure, shortened: (§1)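 Chimeric anti-MET antibodies were incubated with living cells, and bound antibody was detected by flow cytometry with phycoerythrin-conjugated anti-human IgG1. Positive controls were a mouse anti-human MET antibody (PE anti-mouse IgG1) and a goat anti-mouse MET antibody (PE anti-goat IgG1); maximal binding (EMAX) was derived.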

[6] = target: T2, human MET extracellular domain (ECD) (human, UniProt P08581 25-932); experiment: ELISA, MET ECD in solid phase, mAb 0-50 nM
T2 construct: range 1-932; recombinant ECD; also called hMET; human MET ECD
Description: Using human MET as a template, we mutagenized each of these residues in different permutations, generating a series of MET mutants that are fully human except for specific residues, which are llama. Next, we tested the affinity of selected SEMA-binding mAbs (71D6, 71C3, 71D4, 71A3, 71G2) and PSI-binding mAbs (76H10 and 71G3) for these MET mutants by ELISA. To this end, the various MET proteins were immobilized in solid phase (100 ng/well in a 96-well plate) and then exposed to increasing concentrations of antibodies (0-50 nM) solution. […] Wild-type human MET was used as positive control.
TABLE 18 The epitopes of MET responsible for agonistic antibody binding represent residues conserved among H. sapiens, M. musculus, R. norvegicus, M. fascicularis but not among the same species and L. glama. The relevance of residues conserved among human, mouse, rat, cynomolgus monkey but not llama MET for binding to agonistic mAbs was tested by ELISA. Wild-type (WT) or mutant (MT) human MET ECD was immobilized in solid phase and exposed to increasing concentrations of mAbs in solution. […] All binding values were normalized to the WT protein and are expressed as % binding (EMAX) compared to WT MET.

[7] = target: T3, human MET-Fc chimeric protein (R&D Systems) (human, UniProt P08581 25-932); experiment: competition ELISA, hMET-Fc in solid phase, competitor 0.3 nM biotinylated hHGF
T3 construct: extracellular domain; bought (R&D Systems); also called hMET; not shown: Fc portion of human IgG1
Procedure, shortened: (§2)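 N-terminally biotinylated HGF (NHS-LC-biotin); mAbs titrated 0-120 nM against coated MET-Fc; read-out IC₅₀ (50% competition) and IMAX (max % competition at saturation).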

[8] = target: T4, mouse MET-Fc chimeric protein (R&D Systems) (mouse, UniProt P16056 25-929, limits assumed); experiment: competition ELISA, mMET-Fc in solid phase, competitor 0.3 nM biotinylated mHGF
T4 construct: bought (R&D Systems); also called mMET; not shown: Fc
Procedure, shortened: as §2

[9] = target: T1, native mouse MET on living mouse cells; experiment: cell-based or functional assay
[10] = target: T5, native human MET on living human cells (human, UniProt P08581 25-1390); experiment: cell-based or functional assay
[11] = target: T1, native mouse MET on living mouse cells; experiment: cell-based or functional assay; remark: listed apart in the source
[12] = target: T5, native human MET on living human cells; experiment: cell-based or functional assay; remark: listed apart in the source
[13] = target: T5, native human MET on living human cells; experiment: flow cytometry, A549 cells
Procedure, shortened: as §1

[14] = target: human MET ECD mutant I (mutations 6, 7, 8) (human) (UniProt P08581); experiment: ELISA, MET ECD mutant in solid phase, mAb 0-50 nM
[15] = target: human MET ECD mutant J (mutations 6, 7) (human) (UniProt P08581); experiment: ELISA, MET ECD mutant in solid phase, mAb 0-50 nM

Binder | EMAX (% relative to control) [5] [%] | IMAX (maximum % competition) [7] [%] | IMAX (maximum % competition) [8] [%] | protection from staurosporine, viability EC50, MLP29 [9] [nM] | protection from staurosporine, viability EMAX, MLP29 [9] [%] | protection from staurosporine, viability EC50, MCF10A [10] [nM] | protection from staurosporine, viability EMAX, MCF10A [10] [%] | cell scattering score, MLP29, 0.001 nM [11] [score 0-4] | cell scattering score, MLP29, 0.004 nM [11] [score 0-4] | cell scattering score, MLP29, 0.012 nM [11] [score 0-4] | cell scattering score, MLP29, 0.037 nM [11] [score 0-4] | cell scattering score, MLP29, 0.111 nM [11] [score 0-4] | cell scattering score, MLP29, 0.333 nM [11] [score 0-4] | cell scattering score, MLP29, 1.000 nM [11] [score 0-4] | cell scattering score, MLP29, 3.000 nM [11] [score 0-4] | cell scattering score, MLP29, 9.000 nM [11] [score 0-4] | cell scattering score, HPAF-II, 0.001 nM [12] [score 0-4] | cell scattering score, HPAF-II, 0.004 nM [12] [score 0-4] | cell scattering score, HPAF-II, 0.012 nM [12] [score 0-4] | cell scattering score, HPAF-II, 0.037 nM [12] [score 0-4] | also measured
B1 | 144 | 93.4 | 87.7 | < 0.5 | 70.5 | < 0.5 | 71.7 | 0 | 0 | 2 | 3 | 3 | 4 | 4 | 4 | 4 | 0 | 0 | 2 | 3 | % binding (EMAX) compared to WT MET [1]: 65.4%; % binding (EMAX) compared to WT MET [2]: 76.7%; % binding (EMAX) compared to WT MET [3]: 128%; % binding (EMAX) compared to WT MET [4]: 117%; % binding (EMAX) compared to WT MET [6]: 100%; cell scattering score, HPAF-II, 0.111 nM [12]: 3 score 0-4; cell scattering score, HPAF-II, 0.333 nM [12]: 4 score 0-4; cell scattering score, HPAF-II, 1.000 nM [12]: 4 score 0-4; cell scattering score, HPAF-II, 3.000 nM [12]: 4 score 0-4; cell scattering score, HPAF-II, 9.000 nM [12]: 4 score 0-4; EMAX (% relative to control) [13]: 161%
B2 | 130 | 97.8 | 91.9 | 1.99 | 58.3 | 1.06 | 64.8 | 0 | 0 | 1 | 2 | 4 | 4 | 4 | 4 | 4 | 0 | 1 | 2 | 3 | % binding (EMAX) compared to WT MET [1]: 41.4%; % binding (EMAX) compared to WT MET [2]: 40.2%; % binding (EMAX) compared to WT MET [3]: 114%; % binding (EMAX) compared to WT MET [4]: 92.1%; % binding (EMAX) compared to WT MET [6]: 100%; cell scattering score, HPAF-II, 0.111 nM [12]: 4 score 0-4; cell scattering score, HPAF-II, 0.333 nM [12]: 4 score 0-4; cell scattering score, HPAF-II, 1.000 nM [12]: 4 score 0-4; cell scattering score, HPAF-II, 3.000 nM [12]: 4 score 0-4; cell scattering score, HPAF-II, 9.000 nM [12]: 4 score 0-4; EMAX (% relative to control) [13]: 144%
B3 | 124 | 64.2 | 62.7 | > 32 | 27.2 | > 32 | 22.8 | 0 | 0 | 0 | 0 | 0 | 0 | 1 | 2 | 3 | 0 | 0 | 0 | 0 | % binding (EMAX) compared to WT MET [14]: 100%; % binding (EMAX) compared to WT MET [15]: 89%; cell scattering score, HPAF-II, 0.111 nM [12]: 0 score 0-4; cell scattering score, HPAF-II, 0.333 nM [12]: 0 score 0-4; cell scattering score, HPAF-II, 1.000 nM [12]: 1 score 0-4; cell scattering score, HPAF-II, 3.000 nM [12]: 2 score 0-4; cell scattering score, HPAF-II, 9.000 nM [12]: 3 score 0-4; EMAX (% relative to control) [13]: 130%
